GalNAc-transferase activity, Km for acceptor substrate and Vmax data for two proteins are collected here from patent publication US6465220.

For one data set, the target named is T1, PSGL-1a peptide.
T1 chain: QATEYEYLDYDFLPEC

A further data set addresses T2, PSGL-1b peptide.
T2 chain: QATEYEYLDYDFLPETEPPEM

B1: soluble recombinant human GalNAc-T3 (pAcGP67-GalNAc-T3-sol) (protein)
chain: MERNMKNKNKMLDLMLEAVNNIKDAMPKMQIGAPVRQNIDAGERPCLQGYYTAAELKPVLDRPPQDSNAPGASGKAFKTTNLSVEEQKEKERGEAKHCFNAFASDRISLHRDLGPDTRPPECIEQKFKRCPPLPTTSVIIVFHNEAWSTLLRTVHSVLYSSPAILLKEIILVDDASVDEYLHDKLDEYVKQFSIVKIVRQRERKGLITARLLGATVATAETLTFLDAHCECFYGWLEPLLARIAENYTAVVSPDIASIDLNTFEFNKPSPYGSNHNRGNFDWSLSFGWESLPDHEKQRRKDETYPIKTPTFAGGLFSISKEYFEYIGSYDEEMEIWGGENIEMSFRVWQCGGQLEIMPCSVVGHVFRSKSPHSFPKGTQVIARNQVRLAEVWMDEYKEIFYRRNTDAAKIVKQKAFGDLSKRFEIKHRLQCKNFTWYLNNIYPEVYVPDLNPVISGYIKSVGQPLCLDVGENNQGGKPLIMYTCHGLGGNQYFEYSAQHEIRHNIQKELCLHAAQGLVQLKACTYKGHKTVVTGEQIWEIQKDQLLYNPFLKMCLSANGEHPSLVSCNPSDPLQKWILSQND
For the protein B1, the GalNAc-transferase activity entry with PSGL-1a peptide and with PSGL-1b peptide was “exhibited poor activities with both peptide designs” throughout.

B2: soluble recombinant human GalNAc-T1 (pAcGP67-GalNAc-T1-sol) (protein)
chain: GLPAGDVLEPVQKPHEGPGEMGKPVVIPKEDQEKMKEMFKINQFNLMASEMIALNRSLPDVRLEGCKTKVYPDNLPTTSVVIVFHNEAWSTLLRTVHSVINRSPRHMIEEIVLVDDASERDFLKRPLESYVKKLKVPVHVIRMEQRSGLIRARLKGAAVSKGQVITFLDAHCECTVGWLEPLLARIKHDRRTVVCPIIDVISDDTFEYMAGSDMTYGGFNWKLNFRWYPVPQREMDRRKGDRTLPVRTPTMAGGLFSIDRDYFQEIGTYDAGMDIWGGENLEISFRIWQCGGTLEIVTCSHVGHVFRKATPYTFPGGTGQIINKNNRRLAEVWMDEFKNFFYIISPGVTKVDYGDISSRVGLRHKLQCKPFSWYLENIYPDSQIPRHYFSLGEIRNVETNQCLDNMARKENEKVGIFNCHGMGGNQVFSYTANKEIRTDDLCLDVSKLNGPVTMLKCHHLKGNQLWEYDPVKLTLQHVNSNQCLDKATEEDSQVPSIRDCNGSRSQQWLLRNVTLPEIF
With B2, the Km for acceptor substrate in the data set with EA2 peptide is 70 µM; with Muc7 peptide it was 40 µM; with PSGL-1b peptide it was over 2000 µM. Moreover, the Vmax worked out at 0.99 nmol/min/µg in the data set with EA2 peptide and 0.76 nmol/min/µg with Muc7 peptide. The GalNAc-transferase activity result with PSGL-1a peptide and in the data set with PSGL-1b peptide was “exhibited poor activities with both peptide designs” each time.
